This note sets out measurements from PMC3949515, “Multi-PAS domain-mediated protein oligomerization of PpsR from Rhodobacter sphaeroides” (Acta Crystallographica Section D: Biological Crystallography, 2014).

Data set [1] has as its target PpsR_(Q-PAS1), PpsR variant comprising the glutamine-rich linker (Q-linker) and the PAS1 domain (Rhodobacter sphaeroides) (UniProt Q9S301). The data set can be described thus: crystal structure; PpsR_(Q-PAS1), 8 mg/ml, 100 mM sodium cacodylate pH 6.5, 1.9% PEG 3000, 200 mM MgCl2, 293 K; one chain in the asymmetric unit, dimer by a crystallographic dyad; 1.65 Å.
Data set [2] addresses PpsR_(N-Q-PAS1), PpsR variant comprising the N-terminal domain, the Q-linker and the PAS1 domain (Rhodobacter sphaeroides) (UniProt Q9S301). The data set can be described thus: SEC-MALS; Superdex 200 10/300 GL, buffer D (10 mM CHES pH 9.0, 150 mM NaCl, 5% glycerol), 400 µl of a 20 µM protein solution loaded, 0.5 ml/min. On the technique in general: SEC sorts molecules by how far they enter the pores of the column.

The target is the same in data set [3]. Kind of data set: crystal structure; PpsR_(N-Q-PAS1), 10 mg/ml, 1.6 M ammonium sulfate, 100 mM MES pH 6.5, 10 mM L-cysteine, 4% 1,4-dioxane, 293 K; dimer in the asymmetric unit; 2.2 Å.
For data set [4] the target is unchanged. The data set can be described thus: MST; dimer to monomers, KD based on the total monomer concentration; Monolith NT.115, unlabelled protein titrated (1:2 dilution series) into NT-647-labelled protein (10 nM for PpsR_(N-Q-PAS1)), buffer D, three experiments averaged.
Data set [5] concerns the molecule itself. Kind of data set: MST; tetramer to dimers, KD based on the total dimer concentration; Monolith NT.115, unlabelled protein titrated (1:2 dilution series) into 12.5 nM NT-647-labelled protein, buffer D, three experiments averaged.
Data set [6] concerns the molecule itself. Kind of data set: SEC-MALS; Superdex 200 10/300 GL, buffer D (10 mM CHES pH 9.0, 150 mM NaCl, 5% glycerol), 400 µl of a 20 µM protein solution loaded, 0.5 ml/min.
Data set [7] concerns the molecule itself. The data set can be described thus: crystal structure; PpsR_(ΔHTH), 30 mg/ml, 1 M ammonium sulfate, 100 mM Tris-HCl pH 8.5, 6% xylitol, 12% glycerol, 1% dioxane, 293 K; four chains in the asymmetric unit, octamer by a crystallographic twofold axis; 2.8 Å.

“And” between values parts separate entries of the source, which are not always exact repeats. Equal values may be shown once.

The term stoichiometry N denotes the number of molecules, sites or subunits per partner or assembly. A word on the Kd: it is the constant that tells how readily two partners part at equilibrium. Read a low Kd as tighter binding.

For the molecule “PpsR_(Q-PAS1), PpsR variant comprising the glutamine-rich linker (Q-linker) and the PAS1 domain (from UniProt Q9S301 123-257) (domain or fragment)”, the stoichiometry N in data set [1] worked out at 2.

On to “PpsR_(N-Q-PAS1), PpsR variant comprising the N-terminal domain, the Q-linker and the PAS1 domain (from UniProt Q9S301 1-257) (domain or fragment)”, for which the stoichiometry N in data set [2] and in data set [3] was 2 each time. This molecule returned a Kd in data set [4] of 250 nM.

B1: PpsR_(full), full-length transcription factor PpsR (photopigment suppression) from Rhodobacter sphaeroides (natural protein, UniProt Q9S301 1-464, looked up)
chain: MLAGGSLPSLAPDLVRDLIATAADISLLVSQEGVVREVMANPHHPSFGQLSEWEGRPLEEVLTAESVAKFRLRSEGLEPGRGSVAVELNHIDPRSFEFPIRYILHRLPADRSILMLGRDLRPIAEVQQQLVAAQLAMERDYETQREMETRYRVVLDVSRDPMVLVSMSTGRIVDLNSAAGLLLGGVRQDLLGAAIAQEFEGRRRGEFMETMTNLAATESAAPVEVLARRSQKRLLVVPRVFRAAGERLLLCQIDPADATQPVGDELSENLARLYHEGVDGIVFSDADGTIRGANEAFLNMTDSSSLAAIRGRSIADFLARGSVDLRVLIDSVRRTGQLRLYATRLTTDFAGQIAAEISATWLDDRERPLLVLVVRDTSRADTMRRPVPATGVIDEPARNVMELVGNSTLKDIVAETTDVVEKMCIETALELTRNNRVAAAEMLSLSRQSLYVKLRKFGLLNKDE
notes: PpsR from Rhodobacter sphaeroides, UniProt Q9S301, full-length protein; gene synthesized with codon optimization for E. coli, cloned in pETM-11; In MST one copy was randomly labelled at amine positions with NT-647 red fluorescent dye (about one label per monomer); In solution a dimer-tetramer equilibrium; source: E. coli BL21 (DE3), purified (Ni-NTA, TEV cleavage, HiTrap Heparin, Superdex 200); …
In turn, B1 had a Kd in data set [5] of 900 ± 300 nM.

B2: PpsR_(ΔHTH), triple PAS domain construct of PpsR (N-domain, Q-linker, PAS1, PAS2) lacking the C-terminal HTH motif (domain or fragment, Rhodobacter sphaeroides, UniProt Q9S301 1-379, looked up)
chain: MLAGGSLPSLAPDLVRDLIATAADISLLVSQEGVVREVMANPHHPSFGQLSEWEGRPLEEVLTAESVAKFRLRSEGLEPGRGSVAVELNHIDPRSFEFPIRYILHRLPADRSILMLGRDLRPIAEVQQQLVAAQLAMERDYETQREMETRYRVVLDVSRDPMVLVSMSTGRIVDLNSAAGLLLGGVRQDLLGAAIAQEFEGRRRGEFMETMTNLAATESAAPVEVLARRSQKRLLVVPRVFRAAGERLLLCQIDPADATQPVGDELSENLARLYHEGVDGIVFSDADGTIRGANEAFLNMTDSSSLAAIRGRSIADFLARGSVDLRVLIDSVRRTGQLRLYATRLTTDFAGQIAAEISATWLDDRERPLLVLVVRDTSR
notes: PpsR from Rhodobacter sphaeroides, UniProt Q9S301; the model ends at 378 with the C-terminal arginine disordered; The forward primer 1_fw introduces ATG GGA before the first codon of PpsR; In MST one copy was randomly labelled at amines with NT-647; A selenomethionine-substituted form was also crystallized for phasing; source: E. coli BL21 (DE3), purified (Ni-NTA, TEV cleavage, Superdex 200); …
As to B2, the “stoichiometry N” value in data set [6] is 2; in data set [7], 4 and 8. Moreover, the affinity in data set [5], expressed as Kd, was 900 ± 200 nM.
